17 molecules from publication PMC4759581, “A DNA aptamer recognising a malaria protein biomarker can function as part of a DNA origami assembly” can be followed below.

B1: aptamer-staple 111 Edge (ssDNA)
DNA: AAACCCTCTTTTACCAGTAATAAAAGGGATTCACCAGTCACACGTTTTCTGGGCGGTAGAACCATAGTGACCCAG
B2: aptamer-staple 211 Edge (ssDNA)
DNA: GCTAAATCTTTTCTGTAGCTCAACATGTATTGCTGACTGGGCGGTAGAACCATAGTGACCCAG
B3: aptamer-staple 121 Middle (ssDNA)
DNA: TTTCATTTGGTCAATACTGGGCGGTAGAACCATAGTGACCCAGACCTGTTTATATCGCG
B4: aptamer-staple 11 Edge (ssDNA)
DNA: CCTAATTTACGCTAACGAGCGTCTAATCAATACTGGGCGGTAGAACCATAGTGACCCAG
B5: aptamer-staple 87 Middle (ssDNA)
DNA: TCATTACCCGACAATACTGGGCGGTAGAACCATAGTGACCCAGAACAACATATTTAGGC
B6: aptamer staple 91 (ssDNA)
DNA: TATGTAAACCTTTTTTAATGGAAAAATTACCTTTTTTTTTTTTTTTTTTTTTCTGGGCGGTAGAACCATAGTGACCCAGCCGTCTAC
B7: aptamer staple 83 (ssDNA)
DNA: TTATTACGGTCAGAGGGTAATTGAATAGCAGCTTTTTTTTTTTTTTTTTTTTCTGGGCGGTAGAACCATAGTGACCCAGCCGTCTAC
B8: aptamer staple 81 (ssDNA)
DNA: CCGGAAACACACCACGGAATAAGTAAGACTCCTTTTTTTTTTTTTTTTTTTTCTGGGCGGTAGAACCATAGTGACCCAGCCGTCTAC
B9: aptamer staple 77 (ssDNA)
DNA: TGCTCAGTCAGTCTCTGAATTTACCAGGAGGTTTTTTTTTTTTTTTTTTTTTCTGGGCGGTAGAACCATAGTGACCCAGCCGTCTAC
B10: aptamer staple 85 (ssDNA)
DNA: CTTTACAGTTAGCGAACCTCCCGACGTAGGAATTTTTTTTTTTTTTTTTTTTCTGGGCGGTAGAACCATAGTGACCCAGCCGTCTAC
B11: aptamer staple 95 (ssDNA)
DNA: CGGAATTATTGAAAGGAATTGAGGTGAAAAATTTTTTTTTTTTTTTTTTTTTCTGGGCGGTAGAACCATAGTGACCCAGCCGTCTAC
B12: aptamer staple 76 (ssDNA)
DNA: TATCACCGTACTCAGGAGGTTTAGCGGGGTTTTTTTTTTTTTTTTTTTTTTTCTGGGCGGTAGAACCATAGTGACCCAGCCGTCTAC
B13: aptamer staple 93 (ssDNA)
DNA: GAGCAAAAACTTCTGAATAATGGAAGAAGGAGTTTTTTTTTTTTTTTTTTTTCTGGGCGGTAGAACCATAGTGACCCAGCCGTCTAC
B14: aptamer staple 97 (ssDNA)
DNA: CTAAAGCAAGATAGAACCCTTCTGAATCGTCTTTTTTTTTTTTTTTTTTTTTCTGGGCGGTAGAACCATAGTGACCCAGCCGTCTAC
B15: aptamer staple 89 (ssDNA)
DNA: AGAGGCATAATTTCATCTTCTGACTATAACTATTTTTTTTTTTTTTTTTTTTCTGGGCGGTAGAACCATAGTGACCCAGCCGTCTAC
B16: aptamer staple 87 (ssDNA)
DNA: TCATTACCCGACAATAAACAACATATTTAGGCTTTTTTTTTTTTTTTTTTTTCTGGGCGGTAGAACCATAGTGACCCAGCCGTCTAC
B17: aptamer staple 79 (ssDNA)
DNA: TGAGGCAGGCGTCAGACTGTAGCGTAGCAAGGTTTTTTTTTTTTTTTTTTTTCTGGGCGGTAGAACCATAGTGACCCAGCCGTCTAC

For one series, the target named is T1, Plasmodium falciparum lactate dehydrogenase (PfLDH) (Plasmodium falciparum, UniProt Q71T02 1-316). Description: EMSA; 4 C; Fig. S15 panel assignment of 606/355 unclear; EMSA: 25 nM strand, 0-2500 nM PfLDH (tetramer concentration in legends; text says Kd per subunit), 25 mM Tris-HCl pH 7.5, 100 mM NaCl, 20 mM imidazole, 25 C 1 h. The settings on record: protein: recombinant; chain copies: 4; hairpin.
In the case of B1, the Kd amounted to 606 ± 164 nM. The same measure, in the same setting: next, B2: 355 ± 73 nM.

In the next series the target is T1, Plasmodium falciparum lactate …. Description: EMSA; 4 C; EMSA: 25 nM strand, 0-2500 nM PfLDH (tetramer concentration in legends; text says Kd per subunit), 25 mM Tris-HCl pH 7.5, 100 mM NaCl, 20 mM imidazole, 25 C 1 h. The settings on record: protein: recombinant; chain copies: 4; hairpin. In general terms: A gel shift assay detects complexes by their altered migration in electrophoresis.
Consider B3, for which the binding result is listed as “no binding”. For B4, the Kd stood at 596 ± 107 nM. On to B5, for which the Kd is 1720 ± 244 nM.

The next series has the same target. Description: EMSA; apparent, 1:1 fit; EMSA: 25 nM strand, 0-2500 nM PfLDH (tetramer concentration in legends; text says Kd per subunit), 25 mM Tris-HCl pH 7.5, 100 mM NaCl, 20 mM imidazole, 25 C 1 h. The conditions noted are these: protein: recombinant; chain copies: 4; hairpin.
On to B6, for which the Kd was 984 ± 177 nM. Still for that read-out and setting: the value for B7 was 1090 ± 183 nM; that for B8 was 970 ± 254 nM; that for B9 was 726 ± 186 nM.

For B10, the Kd is 713 ± 161 nM. In the case of B11, the Kd was 846 ± 161 nM. The same measure, in the same setting: the value for B12 was 965 ± 265 nM; that for B13 was 647 ± 128 nM; that for B14 was 760 ± 126 nM. Still for that read-out and setting: the value for B15 was 750 ± 95 nM; that for B16 was 878 ± 154 nM; that for B17 was 826 ± 300 nM.
